Assay results taken from patent publication US12667624B2, “GIP derivative, long-acting conjugate thereof, and pharmaceutical composition comprising same” (HANMI PHARM. CO., LTD., priority 2020, dated 2026).
Non-standard residues stand in square brackets, D forms with d. No end group written: not given here. Aib = CC(C)(N)C(=O)O

Assays:
human GIP receptor = molecular target: T1, human GIP receptor (Homo sapiens, UniProt P48546); experiment: In vitro activity of long-acting GIP conjugates: cAMP accumulation in CHO cells expressing human GIP receptor; type: cell-based; settings: relative potency from cAMP EC50, CHO cells expressing human GIP receptor; PEG-immunoglobulin Fc conjugates
T1 construct: expressed in transfected cells; host or cells: CHO (Chinese hamster ovary)
T1 sequence (P48546 22-466): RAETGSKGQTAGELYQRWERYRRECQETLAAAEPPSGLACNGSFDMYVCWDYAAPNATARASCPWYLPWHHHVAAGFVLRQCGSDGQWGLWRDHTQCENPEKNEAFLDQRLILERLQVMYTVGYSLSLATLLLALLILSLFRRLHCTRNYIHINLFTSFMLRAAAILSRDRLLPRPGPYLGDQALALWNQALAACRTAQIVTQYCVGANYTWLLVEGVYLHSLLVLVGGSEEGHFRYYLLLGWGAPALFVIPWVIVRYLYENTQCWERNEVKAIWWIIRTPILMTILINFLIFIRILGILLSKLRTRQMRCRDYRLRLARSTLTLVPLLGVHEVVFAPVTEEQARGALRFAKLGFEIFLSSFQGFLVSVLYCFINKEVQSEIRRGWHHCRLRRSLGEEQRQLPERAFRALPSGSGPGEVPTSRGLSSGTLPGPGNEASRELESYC
Procedure: To measure the activity of the long-acting GIP conjugates prepared in Example 3, a method of measuring cell activity in vitro using a cell line transformed with the GIP receptor was used in the same manner as in Example 2.
In detail, to measure the activity of the long-acting GIP derivatives in the human GIP receptors, human GIP was serially diluted from 16 nM to 0.000015 nM by 4 folds, and the long-acting GIP derivatives prepared in Example 1 were each serially diluted from 50 nM to 0.000048 nM by 4 folds. The culture medium was removed from the cultured CHO cells where the human GIP receptors were expressed, 5 μl of each of the serially diluted materials was added to the cells, and then, 5 μl of buffer containing cAMP antibody was added thereto, followed by incubation at room temperature for 15 minutes. Next, the cells were lysed by adding 10 μl of detection mix containing cell lysis buffer, and then allowed for a reaction at room temperature for 90 minutes. The cell lysate obtained by the completion of the reaction was applied to the LANCE cAMP kit (PerkinElmer, USA) to calculate the EC50 value through the accumulated cAMP to be compared with each other.

THP-1 cell line [1] = experiment: Expression of inflammation-related genes in LPS-treated THP-1 cell line (real-time PCR); type: cell-based, human; settings: THP-1, LPS 1 μg/mL; native GIP 10 μM, long-acting GIP derivative 1 or 10 μM; FIG. 2A
Source text: To confirm the in vitro anti-inflammatory effect of the long-acting GIP derivative conjugate on vasculitis, a human monocyte/macrophage cell line, THP-1 cell line, was used. A macrophage is known to secrete cytokines and chemokines in the early stage of infection in vasculitis-infected tissue, induce the progress of inflammation by utilizing other immune cells, and form giant cells. Therefore, identification of the anti-inflammatory effect in macrophages is referred to as an appropriate in vitro system for evaluating the efficacy on vasculitis.
The THP-1 cell line was cultured in RPMI 1640 medium supplemented with 10% fetal bovine serum (FBS), 100 μg/mL of streptomycin, 100 U/mL of penicillin, and […] of β-mercaptoethanol, under conditions of a temperature of 37° C. and 5% carbon dioxide. […] For use as the long-acting GIP derivative, the long-acting GIP conjugate (SEQ ID NO: 17) prepared in Example 3 was used.
RNA was isolated from the completely treated THP-1 cell line by using the RNeasy Mini Kit (Qiagen, US), and then cDNA was synthesized by using the iScript™ cDNA Synthesis Kit (Bio-rad, U.S.). The synthesized cDNA was referred to confirm the expression levels of inflammation-related genes by using the QuantStudio 6 Flex Real-Time PCR System (Applied Biosystems, U.S.). Here, the Delta Ct method was used, and beta-actin was used as a housekeeping gene. […]

THP-1 cell line [2] = experiment: TNF-α concentration in medium of LPS-treated THP-1 cell line (ELISA); type: cell-based, human; settings: THP-1, LPS 0.1 pg/mL; native GIP 1 μM, long-acting GIP derivative 0.1 μM or 1 μM; FIG. 2B
Source text: Here, the medium was quantified by using Human TNF alpha ELISA Kit (Abcam, US).

| Substance | In vitro activity of long-acting GIP derivative compared to human native GIP in human GIP receptor (%) (human GIP receptor) | expression levels of inflammation-related genes IL-6, IL-12, IL-1β and TNF-α (THP-1 cell line [1]) | concentration of TNF-α in the medium (THP-1 cell line [2]) |
| --- | --- | --- | --- |
| YAibEGT FISDYSIALEKQAQQDFVNWLLAGGPSSGAPPPSC (Y[Aib]EGTFISDYSIALEKQAQQDFVNWLLAGGPSSGAPPPSC) [SEQ ID NO: 17, GIP derivative peptide] | 153.2 | – | – |
| YAibEGT FISDYSIAMDAIAQQDFVNWLLAQKGKKNDWKHNITQC (Y[Aib]EGTFISDYSIAMDAIAQQDFVNWLLAQKGKKNDWKHNITQC) [SEQ ID NO: 11, GIP derivative peptide] | 84.8 | – | – |
| YAibEGT FISDY SIAibLD KQAAAib EFVNW LLAibGG PSSGA PPPSC (Y[Aib]EGTFISDYSI[Aib]LDKQAA[Aib]EFVNWLL[Aib]GGPSSGAPPPSC) [SEQ ID NO: 21, GIP derivative peptide] | 148.5 | – | – |
| YAibEGT FISDY SIAibLD KQAAAib EFVNW LLAibGH PSSGA PPPSC (Y[Aib]EGTFISDYSI[Aib]LDKQAA[Aib]EFVNWLL[Aib]GHPSSGAPPPSC) [SEQ ID NO: 24, GIP derivative peptide] | 123.3 | – | – |
| glucose-dependent insulinotropic polypeptide [native GIP] | – | decreased | decreased |
